The chains are these.
B1: ACT005, humanized anti-GPVI Fab (VL2b + VH2) (Fab, V domains shown)
VH: EVQLVESGGGLVQPGGSLRLSCAASGYTFTSYNMHWVRQAPGKGLEWVGGIYPGNGDTSYNADFKRRFTFSLDTSKSTAYLQMNSLRAEDTAVYYCARGTVVGDWYFDVWGQGTLVTVSS
VL: DIQMTQSPSSLSASVGDRVTITCSASQSLENSNGNTYLNWYQQKPGKAPKLLIYRVSNRFSGVPSRFSGSGSGTDFTLTISSLQPEDFATYYCLQLTHVPWTFGQGTKVEIK
B2: ACT006, humanized anti-GPVI Fab (VL2b + VH3) (Fab, V domains shown)
VH: QVQLVQSGAEVKKPGASVKVSCKASGYTFTSYNMHWVRQAPGQGLEWMGGIYPGNGDTSYNQKFQGRVTMTRDTSTSTVYMELSSLRSEDTAVYYCARGTVVGDWYFDVWGQGTLVTVSS
VL: DIQMTQSPSSLSASVGDRVTITCSASQSLENSNGNTYLNWYQQKPGKAPKLLIYRVSNRFSGVPSRFSGSGSGTDFTLTISSLQPEDFATYYCLQLTHVPWTFGQGTKVEIK
B3: ACT016, humanized anti-GPVI Fab (VL8b + VH2) (Fab, V domains shown)
VH: EVQLVESGGGLVQPGGSLRLSCAASGYTFTSYNMHWVRQAPGKGLEWVGGIYPGNGDTSYNADFKRRFTFSLDTSKSTAYLQMNSLRAEDTAVYYCARGTVVGDWYFDVWGQGTLVTVSS
VL: DIQMTQSPSSLSASVGDRVTITCRSSQSLENSNGNTYLNWYQQKPGKAPKLLIYRVSNRFSGVPSRFSGSGSGTDFTFTISSLQPEDIATYYCLQLTHVPWTFGQGTKVEIT
B4: ACT017, humanized anti-GPVI Fab (VL8b + VH3) (Fab, V domains shown)
VH: QVQLVQSGAEVKKPGASVKVSCKASGYTFTSYNMHWVRQAPGQGLEWMGGIYPGNGDTSYNQKFQGRVTMTRDTSTSTVYMELSSLRSEDTAVYYCARGTVVGDWYFDVWGQGTLVTVSS
VL: DIQMTQSPSSLSASVGDRVTITCRSSQSLENSNGNTYLNWYQQKPGKAPKLLIYRVSNRFSGVPSRFSGSGSGTDFTFTISSLQPEDIATYYCLQLTHVPWTFGQGTKVEIT
B5: Fab 9O12, Fab fragment of the mouse monoclonal IgG1,k 9O12 (Fab, V domains shown)
VH: QVQLQESGAELVKPGASVKMSCKASGYTFTSYNMHWVKQTPGQGLEWIGGIYPGNGDTSFNQKFKGKATLTADKSSRTAYMQLSSLTSEDSAVYYCARGTVVGDWYFDVWGAGTTLTVSS
VL: DVLMTQTPLSLPVSLGDQASISCRSSQSLENSNGNTYLNWYLQKPGQSPQLLIYRVSNRFSGVLDRFSGSGSGTDFTLKISRVEAEDLGVYFCLQLTHVPWTFGGGTKLEIK
B6: ACT010, humanized anti-GPVI Fab (VL3b + VH3) (Fab, V domains shown)
VH: QVQLVQSGAEVKKPGASVKVSCKASGYTFTSYNMHWVRQAPGQGLEWMGGIYPGNGDTSYNQKFQGRVTMTRDTSTSTVYMELSSLRSEDTAVYYCARGTVVGDWYFDVWGQGTLVTVSS
VL: DIVMTQTPLSLSVSVGERVTITCKSSQSLENSNGNTYLNWYLQKPGQAPQLLIYRVSNRFSGVPDRFSGSGSGTDFTLTISRVEAEDVGVYYCLQLTHVPWTFGQGTKLEIK

A value given as a limit tells only on which side of the number the result lay.

The first test deals with T1, Recombinant GPVI-Fc (extracellular domain of human GPVI fused to human IgG1 Fc domain) (Homo sapiens, UniProt Q9HCN6). Kind of test: SPR.
T1 sequence (Q9HCN6 21-267): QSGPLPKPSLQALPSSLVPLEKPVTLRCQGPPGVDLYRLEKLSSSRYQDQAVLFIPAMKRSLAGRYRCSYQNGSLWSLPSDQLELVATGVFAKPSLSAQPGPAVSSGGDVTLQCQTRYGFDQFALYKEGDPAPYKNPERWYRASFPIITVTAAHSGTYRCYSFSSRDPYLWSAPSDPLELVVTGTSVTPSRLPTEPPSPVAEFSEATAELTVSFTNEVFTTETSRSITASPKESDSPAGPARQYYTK
In the case of B1, the Kd (as a rule, the free concentration of one partner at which half of the binding sites on the other are occupied at equilibrium, for simple one-to-one binding) was less than 25 nM. On the same count and under the same terms, to B2 belongs less than 8 nM. The same measure, in the same setting: to B3 belongs less than 25 nM; to B4, 4.1 nM; to B5, 17 nM.

The target in the next test is T1, Recombinant GPVI-Fc (extracellular …). The experiment in a line: ELISA. In general terms: An ELISA detects its analyte on a solid surface through an enzyme-linked reagent.
In the case of B6, the binding result is “binds”.

(Values after paper PMC5540112 (mAbs, 2017).)
